Broadly, the Kd is the concentration at which binding is half-saturated. Read a high Kd as weaker binding. By koff is commonly meant a measure of how fast the partners let go of each other. In general, kon refers to a measure of how fast the partners come together. A lower kon goes with slow association.

In assay [1] the target is Flag-tagged Fn (Flag-Fn) (human) (UniProt P02751). Briefly: SPR (Biacore), Flag-Fn on the chip, M2 antibody flowed over.
The target of assay [2] is P20.1 antibody (monoclonal antibody produced by mouse-mouse hybridoma P20.1, FERM BP-11061). Kind of assay: competitive dissociation ELISA: P20.1 antibody bound to coated P4(20)-Fn, free P4(C8) peptide added at the final washing step for 30 minutes; displaced partner P4(20)-Fn. (An ELISA detects its analyte on a solid surface through an enzyme-linked reagent.)
For assay [3] the target is unchanged. Briefly: competitive elution of the P4×3-tagged hGH fusion protein from P20.1 antibody-Sepharose, SDS gel.
Assay [4] has the same target. Briefly: competitive dissociation ELISA: free peptide added for 30 minutes to P20.1 antibody bound on coated P4(20)-Fn.
Assay [5] concerns the target T1, hGH-BAS-γC-P4×3, human growth factor/human fibrinogen γ chain C domain fusion protein with 3 repeats of the … (human, UniProt P01241 27-217; P02679 169-437).
T1 construct: also called P4×3-tagged hGH fusion protein
Briefly: SPR (Biacore X-100), P20.1 antibody-immobilized chip, fusion protein flowed over. Background: Surface plasmon resonance follows binding to a sensor surface in real time, without labels.

Assay [6] deals with hGH-BAS-γC-P4×5, human growth factor/human fibrinogen γ chain C domain fusion protein with 5 repeats of the … (human, UniProt P01241 27-217; P02679 169-437). Described as above.
Assay [7] concerns the target T2, tag peptide/F-spondin fusion protein (P4×3, TEV protease cleavage sequence, N-terminal 146-amino-acid domain …).
T2 construct: Secreted from HEK293T cells; also called recombinant F-spondin protein
T2 chain: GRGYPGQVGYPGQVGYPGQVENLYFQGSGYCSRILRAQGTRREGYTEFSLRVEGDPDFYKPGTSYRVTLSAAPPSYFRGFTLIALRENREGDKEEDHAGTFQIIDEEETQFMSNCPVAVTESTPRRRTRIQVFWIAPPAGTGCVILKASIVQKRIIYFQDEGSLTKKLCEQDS
Kind of assay: affinity purification from culture supernatant on P20.1 antibody-Sepharose, elution with 40% propylene glycol and 1 M NaCl, SDS gel electrophoresis.
Method: Washing with TBS and eluting with a buffer solution containing 40% propylene glycol and 1 M NaCl were performed, and the resulting effluent was subjected to SDS gel electrophoresis.

The target of assay [8] is T3, P4(C8) peptide (8-residue peptide PRGYPGQV) (human).
T3 peptide: PRGYPGQV
Kind of assay: X-ray crystallography of the complex.

Where only a bound is given, the exact number is not on record here.

Sequence of Flag-tagged Fn (Flag-Fn) (human) (P02751 other isoform, or with tags, fused parts or gaps limits assumed): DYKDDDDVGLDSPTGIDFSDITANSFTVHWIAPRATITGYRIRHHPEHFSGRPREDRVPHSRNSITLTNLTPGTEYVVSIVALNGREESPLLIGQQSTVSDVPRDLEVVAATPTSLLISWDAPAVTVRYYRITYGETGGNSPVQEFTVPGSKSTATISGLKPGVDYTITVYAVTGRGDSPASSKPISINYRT

As for “commercially available anti-Flag antibody M2”, in assay [1], the Kd is 2.7 nM, the koff turned out to be 0.000395 s⁻¹ and the kon came out at 146000 M⁻¹ s⁻¹.
As to PRGYPGQV [P4(C8) peptide (8-residue peptide PRGYPGQV)], the IC50 (read off the curve) in assay [2] was 10 µg/mL. This molecule showed a peptide concentration that elutes the tagged fusion protein in assay [3] greater than 0.1 mg/mL. In assay [4], the peptide concentration at which almost complete dissociation was confirmed worked out at 0.1 mg/mL.

B1: P20.1 antibody (monoclonal antibody produced by mouse-mouse hybridoma P20.1, FERM BP-11061) (antibody, mouse IgG1, V domains shown)
VH: QIQLVQSGPEVQKPGETVRISCKASGYTFTTAGMQWVQKMPGKSLKWIGWINTRSGVPKYAEDFKGRFAFSLETSASIAYLHINNLKNEDTATYFCAREGPGFVYWGQGTLVTVSA
VL: QTVVTQESALTTSPGETVTLTCRSSTGVVTTSNYANWVQEKPDHLFTGLIVGTNNRVPGVPPRFSGSLIGDKAALTITGAQTEDEAIYFCALWYSNHWVFGGGTKLTVL
notes: Biotinylated in the sandwich ELISA of 7-2-1 and coupled to CNBr-Sepharose in the pull-down and purification experiments; also called P20.1 Ab; monoclonal P20.1 antibody
B1: the “fold of the maximum binding capacity against the fusion protein with one repeat” value in assay [5] and in assay [6] was no less than 4 fold in each case. Moreover, the binding result in assay [7] is “binds”.

B2: Fab fragment of the P20.1 antibody (Fab, V domains shown)
VH: B1 VH
VL: B1 VL
notes: Made by papain digestion of the purified IgG1/lambda antibody; also called P20.1 antibody Fab fragment
As for B2, the binding result in assay [8] was “binds”.

The values are drawn from patent US20110039331A1 (OSAKA UNIVERSITY, published 2011).
